The target of one assay is T1, SAP2:CFP (A. thaliana, UniProt Q8H0X0 1-173).
T1 sequence (looked up): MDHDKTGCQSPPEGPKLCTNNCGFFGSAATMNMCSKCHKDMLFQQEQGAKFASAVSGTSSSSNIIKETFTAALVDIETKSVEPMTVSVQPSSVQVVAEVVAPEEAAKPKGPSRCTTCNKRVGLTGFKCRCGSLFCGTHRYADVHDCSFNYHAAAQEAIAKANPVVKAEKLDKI
The assay is described as follows: FRET or BRET.

Another assay concerns the target T2, SAP3:CFP (A. thaliana, UniProt Q9ZNU9 1-163).
T2 sequence (looked up): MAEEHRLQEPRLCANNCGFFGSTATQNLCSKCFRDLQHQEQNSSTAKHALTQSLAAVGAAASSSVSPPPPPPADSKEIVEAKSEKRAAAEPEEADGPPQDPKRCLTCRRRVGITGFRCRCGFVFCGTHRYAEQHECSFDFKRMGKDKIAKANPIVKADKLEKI
The assay is described as follows: FRET or BRET.

The results in this text go back to article doi:10.1101/2021.02.18.431817 (bioRxiv, 2021).

B1: CML49:YFP (natural protein, A. thaliana, UniProt Q8W4L0 1-335, looked up)
chain: MSGYPPSSQGYGYGGNPPPPQPPYGSTGNNPPPYGSSGSNPPPPYGSSASSPYAVPYGAQPAPYGAPPSAPYASLPGDHNKPHKEKPHGASYGSPSPGGYGAHPSSGPSDYGGYGGAPQQSGHGGGYGGAPQQSGHGGGYGAPPPQASYGSPFASLVPSAFPPGTDPNIVACFQAADRDNSGFIDDKELQGALSSYNQSFSIRTVHLLMYLFTNSNVRKIGPKEFTSLFFSLQNWRSIFERFDKDRSGRIDTNELRDALMSLGFSVSPVILDLLVSKFDKSGGRNRAIEYDNFIECCLTVKGLTEKFKEKDTALSGSAIFNYENFMLTVLPFLVA
Turning to B1, the “FRET efficiency, fold of negative control” value with SAP2:CFP and in the assay with SAP3:CFP was > 5 fold of negative control in each case.
